The nature of series [1]: folding stability dG unfold from trypsin proteolysis; higher = more stable. The essentials: (§1)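 How resistant each design was to proteolysis was captured as K50, inferred by Bayesian fitting of sequencing counts. Unfolding free energy was then derived relative to a sequence-predicted unfolded-state K50 and a shared folded-state K50, per protease or combined. Digestion used trypsin and chymotrypsin at 11 threefold-diluted concentrations plus a no-protease condition, on mini-proteins under 80 residues without cysteine in a PA-tagged cDNA display construct. Designs were kept only when AlphaFold2 dimer inter-PAE was above 15.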

Series [2] is described as follows: folding stability dG unfold from chymotrypsin proteolysis; higher = more stable. An outline of the steps:
as §1

A short description of series [3]: folding stability dG unfold (combined trypsin and chymotrypsin); higher = more stable. An outline of the steps:
as §1

± gives the half width of the 95% confidence interval.

For the sequence “SAGGGPVTVTVTFKPPSTGLTSTVTLPFPNVSSYEEAKERAEELAKEAGGPIETITFTDPATGKAHPLSAGG [r13_771_JUSTAS]”, the “folding stability dG unfold” value in series [1] came to 0.449 ± 0.068 kcal/mol; in series [2], 0.213 ± 0.27 kcal/mol; in series [3] it was 0.646 ± 0.23 kcal/mol.
Taken in the same sequence, the figures for “SAGGGPVVLTDPVKTEKSPDGTTYTLTREVFYDPSRGEPLKVRFTLTKVTNYPDGVKTETLEEKEVALSAGG [r13_596_JUSTAS]” were 0.816 ± 0.081 kcal/mol, 1.33 ± 0.19 kcal/mol and 1.09 ± 0.16 kcal/mol.
Taken in the same sequence, the figures for “SAGGGQTIEIKFPVPNENYRVYLMVYDPDKPISVEPQRFDPPDGEVTDKIKLPPDVKIGFMAFPPEDMSAGG [r13_977_TrROS]” were 0.631 ± 0.033 kcal/mol, 0.966 ± 0.13 kcal/mol and 0.823 ± 0.048 kcal/mol.
Regarding “SAGGGRARLIELKEARFNPETGVLELTALVEFPEIGTLVVFRIRVPLEGEPRIEIEVEVYPIKPGEASAGGS [r16_207_TrMRF]”, the “folding stability dG unfold” value was 3.17 ± 0.07 kcal/mol in series [1], 4.31 ± 0.056 kcal/mol in series [2] and 4 ± 0.091 kcal/mol in series [3].
Taken in the same sequence, the figures for “SAGGGRVAVLKVEVRNPETGETTEVELVLPLPPEMTPEEAEEAAREAARTLAESTGVEVEIKSVELLSAGGS [r8_312_TrMRF]” were 3.77 ± 0.068 kcal/mol, 3.278 ± 0.031 kcal/mol and 3.46 ± 0.053 kcal/mol.
Taken in the same sequence, the figures for “SAGGGSFINISKKEIAEAISKLIGKDYPLEDVKVSVTTLPENKTIINVEIKLPNTTETLYIPILFDVSAGGS [r16_42_TrMRF]” were 2.09 ± 0.094 kcal/mol, 1.7 ± 0.018 kcal/mol and 1.91 ± 0.068 kcal/mol.
Taken in the same sequence, the figures for “SAGGGSLSDIATVDTSSYTDPNNPASVTVTNVTIPDGSTVTVTYNPTTGTVTVTTATDGTTTTTTIPSSAGG [r13_960_JUSTAS]” were 1.89 ± 0.19 kcal/mol, 0.917 ± 0.056 kcal/mol and 1.42 ± 0.15 kcal/mol.
With “SAGGGSMEEARRLIEEIAEEVKAKGVKVKVRITFGPDPKVLSIEIFSPDEPIVDNGGPGLVTLTFDIPSAGG [r13_693_JUSTAS]”, the “folding stability dG unfold” value in series [1] was determined as 2.07 ± 0.057 kcal/mol; in series [2] it was 2.778 ± 0.023 kcal/mol; in series [3] it was 2.55 ± 0.063 kcal/mol.
Regarding “SAGGGSMPASITTEVTETTTPDATVTKSTVYYPDTGKWLEETTTTGPTTTITTTKFPDGSTTVTTAASAGGS [r16_657_JUSTAS]”, the “folding stability dG unfold” value in series [1] is 0.275 ± 0.052 kcal/mol; in series [2], -1.18 ± 0.28 kcal/mol; in series [3], -0.175 ± 0.11 kcal/mol.
In the case of “SAGGGSMSESLSLVEEEIKVGETVVKVKRLIYPVSGTALVEITKPGGGPIGVFNTTISPSTGGVELLSAGGS [r16_798_JUSTAS]”, the “folding stability dG unfold” value in series [1] is -1.04 ± 0.17 kcal/mol; in series [2] it was -1.38 ± 0.57 kcal/mol; in series [3] it was below -1 kcal/mol.
Take “SAGGGSSSTTTSTTTTTSTSIEPLPGDREVVVTTTTTTTTTTTTTTPPDGSSTSTTTTTTTTTTTVTLASAG [r5_428_JUSTAS]”: the results for the “folding stability dG unfold” value in series [1], in series [2] and in series [3] were 2.57 ± 0.23 kcal/mol, 1.45 ± 0.082 kcal/mol and 1.93 ± 0.13 kcal/mol, respectively.
The like results for “SAGGGSTVTTFDPSTGKTTVSIGTDPATGERTVTIVLKNGTPVTVPGPFPSVEEAEAAAAAAAAAAASAGGS [r16_319_JUSTAS]” were, in that order, 0.762 ± 0.043 kcal/mol, 0.824 ± 0.041 kcal/mol and 0.818 ± 0.097 kcal/mol.
With “SAGGGSVTVSLEGNTTYVRISREDGPERTYTFPQPNGEPLTFTEAPGRPGLITITRPATGEPVVLALSAGGS [r16_198_JUSTAS]”, the “folding stability dG unfold” value was 0.281 ± 0.18 kcal/mol in series [1], 0.0166 ± 0.31 kcal/mol in series [2] and 0.219 ± 0.18 kcal/mol in series [3].
The like results for “SAGGGTFYLVVKVEKVAPNPETGELVEERLELVIPGKAPNAVSEEDLKAFVDALLPLGYKVEVELREGSAGG [r13_926_TrMRF]” were, in that order, 1.91 ± 0.12 kcal/mol, 2.07 ± 0.12 kcal/mol and 2.07 ± 0.2 kcal/mol.
Turning to “SAGGGTRTINFDSPEDAEDAIEDWPDWDKVTISVPSNGEPQSIPLKIKPPPPPKYKRDENGKPEPEPDSAGG [r13_183_TrROS]”, the figures for the “folding stability dG unfold” value in series [1], in series [2] and in series [3] were 2.08 ± 0.14 kcal/mol, 2.95 ± 0.19 kcal/mol and 2.65 ± 0.25 kcal/mol, respectively.
On to “SAGGGTTITLSFADGTTKTLTLPGLTEVVEEPGRVVVRADVPERRVVVTFEPATGTITVEEFAPEEPVSAGG [r13_392_JUSTAS]”, for which the results for the “folding stability dG unfold” value in series [1], in series [2] and in series [3] were 0.818 ± 0.1 kcal/mol, 2.27 ± 0.057 kcal/mol and 1.86 ± 0.25 kcal/mol, respectively.
Turning to “SAGGGVPLTRSEPLGEIEFPEENIKLKISRYTSPLDGTEYIEITTDYGEGTSTSIYPPGEIEEILGGSAGGS [r16_603_JUSTAS]”, the “folding stability dG unfold” value amounted to 0.666 ± 0.12 kcal/mol in series [1], 1.39 ± 0.19 kcal/mol in series [2] and 0.909 ± 0.18 kcal/mol in series [3].
Taken in the same sequence, the figures for “SAGGGVTITASPDGTVTITIGGKPITVPVHPGATLEFRVEPTPDGRPAVTITWTSPDGTPYTFTFTGSAGGS [r16_231_TrMRF]” were 4.23 ± 0.14 kcal/mol, 5.015 ± 0.036 kcal/mol and 4.89 ± 0.053 kcal/mol.
In the case of “SAGGGVTITLKTADGKTLTLEIPGLTSVTVEPDKVTVEFEIPDYRITITFNPSTGTVEIKISHPDEPESAGG [r13_392_TrMRF]”, the figures for the “folding stability dG unfold” value in series [1], in series [2] and in series [3] were 3.37 ± 0.19 kcal/mol, 3.93 ± 0.19 kcal/mol and 3.8 ± 0.2 kcal/mol, respectively.
Taken in the same sequence, the figures for “SAGGGWKPIGKEEITLPFGIKVTVDIWTWPDGMIMIMIEIEIPVPPPKPPVPPMSPEDMKDMNEDNGSAGGS [r16_6_TrROS]” were 2.06 ± 0.14 kcal/mol, 3.8 ± 0.24 kcal/mol and 3.2 ± 0.43 kcal/mol.
“SAGGGYRAVAVFERPDGRREVVFIEFESEEEALREAEEIARRFGLRLKELRVYPVEPLPPVRPELAGSAGGS [r8_364_TrMRF]”: the “folding stability dG unfold” value in series [1] was determined as 3.49 ± 0.089 kcal/mol; in series [2] it was 5.17 ± 0.083 kcal/mol; in series [3] it was 4.88 ± 0.09 kcal/mol.
The like results for “SAGGHHHHHHHHIDGKFRSEEEAKKLKEEIEKELRAKGYTDIEVEVEVKVEEPPPRRPRPGSPAYTLGSAGG [r13_6_JUSTAS]” were, in that order, 1.45 ± 0.16 kcal/mol, 0.573 ± 0.11 kcal/mol and 0.955 ± 0.34 kcal/mol.
Turning to “SAGGIDLDDLPPGDIFIFIKIKMEPVKVDDPDGKEYNRMEIEIFIFRFDPPNGKIQFEPIPMEFYIRSAGGS [r8_486_TrROS]”, the “folding stability dG unfold” value in series [1] was determined as 2.83 ± 0.25 kcal/mol; in series [2], 3.28 ± 0.064 kcal/mol; in series [3], 3.19 ± 0.23 kcal/mol.
In the case of “SAGGIDLSKLPKNSIVVITKVKVYPTKVGEPDGEGEGYVEVELRVFRNIPPTGKILSSPLPVKFKIASAGGS [r8_486_TrMRF]”, the “folding stability dG unfold” value turned out to be 1.19 ± 0.04 kcal/mol in series [1], 0.987 ± 0.25 kcal/mol in series [2] and 1.17 ± 0.12 kcal/mol in series [3].
Turning to “SAGGIEELAKALGIEEVEVTSIDPETREVTVRVRVRGPDGEERTLTVKIRLEPAPPPVRTFSEEELKSSAGG [r13_608_TrROS_Hall]”, the “folding stability dG unfold” value in series [1] was determined as 1.78 ± 0.029 kcal/mol; in series [2] it was 1.06 ± 0.04 kcal/mol; in series [3] it was 1.45 ± 0.087 kcal/mol.
Taken in the same sequence, the figures for “SAGGIEVDPEHKHVHIHIPNGNIPELLDLIEDAPGDHVSIHFYNPGNGKPRRFTMPRKEARKFLEQFSAGGS [r16_797_TrROS]” were 1.13 ± 0.033 kcal/mol, 0.834 ± 0.086 kcal/mol and 1.04 ± 0.044 kcal/mol.
For “SAGGIIEIDPNGWVIRIEMYPPDGKPPKHTIPFPNATPEELIDELKDWADQLPNPGHKVKIDEITPMPSAGG [r13_29_TrROS]”, the “folding stability dG unfold” value in series [1] was 0.052 ± 0.071 kcal/mol; in series [2] it was 0.372 ± 0.17 kcal/mol; in series [3], 0.177 ± 0.086 kcal/mol.
On to “SAGGILDLAAERNAVSVEVLEVNPEPPTVTVRLTYRNAAGEPRTATFTVELPPPAPPVPLVLPGEATFSAGG [r13_608_TrMRF]”, for which the “folding stability dG unfold” value in series [1] came out at 0.735 ± 0.059 kcal/mol; in series [2], 2.46 ± 0.11 kcal/mol; in series [3], 1.85 ± 0.089 kcal/mol.
As for “SAGGIRIRDEDGKPRAEYTIYHPDHGMPIEINVYRNKDGNPYIQVEMTGPNGRPKKFTMPADDLNDLSAGGS [r8_24_TrROS]”, the “folding stability dG unfold” value was -0.862 ± 0.52 kcal/mol in series [1], 0.559 ± 0.13 kcal/mol in series [2] and 0.266 ± 0.082 kcal/mol in series [3].
With “SAGGIRIRFWVPSPEEAREMAETIAKWLMEEHPGAKIKIEPKKVEPNPDNGYYRVEVPIKIVLPGQPISAGG [r13_585_TrROS]”, the results for the “folding stability dG unfold” value in series [1], in series [2] and in series [3] were 1.36 ± 0.051 kcal/mol, 1.89 ± 0.057 kcal/mol and 1.7 ± 0.042 kcal/mol, respectively.
Taken in the same sequence, the figures for “SAGGITIELRNPNGEPVEVHLKRDPDGTLELSVHMRGPEGRHYMVTMTIKVKNNGIEIDKFDNWYPLPSAGG [r13_451_TrROS]” were 3.11 ± 0.092 kcal/mol, 4.16 ± 0.084 kcal/mol and 3.79 ± 0.11 kcal/mol.
Taken in the same sequence, the figures for “SAGGITINEDGTITIEVNGKTYTIKLPPGAEITKIEVLEDGTIKITLRINGKTVTLELKVYKEGEEPSAGGS [r16_635_TrROS_Hall]” were 4.56 ± 0.42 kcal/mol, 6.55 ± 0.68 kcal/mol and above 6 kcal/mol.
For the sequence “SAGGKATVTITEVKVETETVTLKYDPETGELVEKTETVTRVEVKTITIEADKNPELAEELLKKLGIESAGGS [r16_467_TrROS_Hall]”, the “folding stability dG unfold” value in series [1] was 1.69 ± 0.11 kcal/mol; in series [2], 2.93 ± 0.25 kcal/mol; in series [3], 2.56 ± 0.28 kcal/mol.
Regarding “SAGGKEVKIEIEEKDGKLVIKITVKTEEELKEEIKKLLEEEFGLEVEEVKVEKNKNGEVTIYVVIKKKSAGG [r13_158_TrROS_Hall]”, the “folding stability dG unfold” value in series [1] came out at 1.45 ± 0.17 kcal/mol; in series [2], 2.64 ± 0.2 kcal/mol; in series [3], 2.51 ± 0.44 kcal/mol.
Turning to “SAGGKEVLTVTVEVEIDGVLIRVEAEVTLDEDGNLTVTITRIEIRPLPPPKIDLRDLTDEQRKELGIESAGG [r13_964_TrROS_Hall]”, the results for the “folding stability dG unfold” value in series [1], in series [2] and in series [3] were 2.04 ± 0.096 kcal/mol, 2.02 ± 0.086 kcal/mol and 1.93 ± 0.13 kcal/mol, respectively.
Turning to “SAGGKEYRNPENGQKIPPGDTEEEREKHAREHAKPVIVPIEIPIVIKFGDVIFPIPITFEIPLTPGGSAGGS [r16_387_TrROS]”, the “folding stability dG unfold” value in series [1] is 0.0408 ± 0.054 kcal/mol; in series [2], -0.0327 ± 0.28 kcal/mol; in series [3] it was 0.058 ± 0.32 kcal/mol.

These data come from the supplement of paper PMC12764529.
